Ends that are not written are not given here.
Biological target: BRD4-BD2 (recombinant, NMR and fluorescence anisotropy) (UniProt O60885 333-460)
Test: fluorescence polarisation

A Ki of 800 µM was found for SPAQGK(Ac)RGK(Ac)KSA (peptide, UniProt Q15672 68-79, looked up) [Twist-K73ac/K76ac peptide (residues 68-79)] in this work.

Reference: publication PMC4004960 (Cancer cell, 2014)
